Experimental data published in patent US20230277625A1 (SIMCHA IL 18, published 2023).
Substitutions are numbered along the chain they refer to.

T1: Human IL-18Rα ectodomain (amino acids 19-329), biotinylated (human, UniProt Q13478 19-329, biotin on the AviTag (BirA ligase))
T1 construct: range 19-329; Secreted from insect cells (gp67 signal peptide removed); also called hIL-18Rα; hIL18Rα
T1 sequence: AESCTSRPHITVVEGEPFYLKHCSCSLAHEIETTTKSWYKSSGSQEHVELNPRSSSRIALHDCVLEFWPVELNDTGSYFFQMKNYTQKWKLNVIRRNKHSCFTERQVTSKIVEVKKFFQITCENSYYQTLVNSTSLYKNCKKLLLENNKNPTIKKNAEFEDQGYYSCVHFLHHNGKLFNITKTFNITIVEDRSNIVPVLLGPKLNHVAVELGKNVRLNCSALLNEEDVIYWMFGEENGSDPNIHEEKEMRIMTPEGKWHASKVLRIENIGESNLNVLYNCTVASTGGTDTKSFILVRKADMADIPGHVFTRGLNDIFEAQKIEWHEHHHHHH

T2: IL-18 receptor (IL-18Rα / IL-18Rβ heterodimer) on HEK-Blue IL-18 reporter cells (UniProt Q13478 19-541; O95256 20-599, limits assumed)
T2 sequence (looked up) 1: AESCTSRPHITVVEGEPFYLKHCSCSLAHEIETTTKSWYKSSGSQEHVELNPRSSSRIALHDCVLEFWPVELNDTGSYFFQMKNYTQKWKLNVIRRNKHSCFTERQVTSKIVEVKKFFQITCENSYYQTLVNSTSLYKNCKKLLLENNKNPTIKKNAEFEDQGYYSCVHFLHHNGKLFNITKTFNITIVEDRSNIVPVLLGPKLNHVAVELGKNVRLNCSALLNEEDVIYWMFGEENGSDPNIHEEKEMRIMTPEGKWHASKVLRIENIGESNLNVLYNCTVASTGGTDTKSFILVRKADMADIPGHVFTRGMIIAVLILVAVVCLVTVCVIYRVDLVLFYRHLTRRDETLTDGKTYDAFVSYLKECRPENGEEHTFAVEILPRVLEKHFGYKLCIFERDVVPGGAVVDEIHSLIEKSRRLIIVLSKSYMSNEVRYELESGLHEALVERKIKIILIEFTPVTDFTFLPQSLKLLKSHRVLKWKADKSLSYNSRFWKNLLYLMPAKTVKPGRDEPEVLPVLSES
T2 sequence (looked up) 2: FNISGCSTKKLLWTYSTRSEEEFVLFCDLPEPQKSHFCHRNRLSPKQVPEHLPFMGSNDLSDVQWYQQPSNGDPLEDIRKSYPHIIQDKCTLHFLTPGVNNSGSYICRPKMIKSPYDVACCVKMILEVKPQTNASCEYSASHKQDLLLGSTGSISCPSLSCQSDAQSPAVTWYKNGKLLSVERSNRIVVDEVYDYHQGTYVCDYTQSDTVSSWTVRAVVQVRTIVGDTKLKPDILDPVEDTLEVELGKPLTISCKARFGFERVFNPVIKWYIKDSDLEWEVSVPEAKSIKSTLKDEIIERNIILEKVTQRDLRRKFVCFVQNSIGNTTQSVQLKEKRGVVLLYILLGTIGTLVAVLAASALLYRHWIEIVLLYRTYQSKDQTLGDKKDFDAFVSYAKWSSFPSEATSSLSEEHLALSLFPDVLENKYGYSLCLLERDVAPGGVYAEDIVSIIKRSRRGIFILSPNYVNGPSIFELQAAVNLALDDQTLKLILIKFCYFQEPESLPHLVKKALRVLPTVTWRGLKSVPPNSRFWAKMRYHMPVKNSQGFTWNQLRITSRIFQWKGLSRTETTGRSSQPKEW

T3: Human IL-18BP (amino acids 31-194), biotinylated (human, UniProt O95998 31-194, biotin on the AviTag (BirA ligase) where used biotinylated)
T3 construct: Soluble decoy receptor; also called hIL-18BP; recombinant IL-18BP
T3 sequence: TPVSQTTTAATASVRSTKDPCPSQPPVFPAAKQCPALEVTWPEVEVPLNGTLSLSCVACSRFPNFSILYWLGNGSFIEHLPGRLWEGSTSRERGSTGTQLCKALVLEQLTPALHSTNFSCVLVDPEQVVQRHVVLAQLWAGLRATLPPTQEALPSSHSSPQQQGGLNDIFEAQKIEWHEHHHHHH

B1: SEQ ID NO: 89 (second generation human DR-IL-18 variant 6-12) (ligand)
chain: YFGKLESKLSVIRNLNDQVLFIDQGNRPLFEDMTDSDCRDNAPRTIFIISKYSDSLARGLAVTISVKCEKISTLSCENKIISFKEMNPPDNIKDTKSDIIFFQRDVPGHSRKMQFESSSYEGYFLACEKERDLFKLILKKEDELGDRSIMFTVQNED
notes: Engineered variant; recombinant soluble analyte in SPR and cell assays
B2: SEQ ID NO: 91 (second generation human DR-IL-18 variant 6-29) (ligand)
chain: B1 chain with L56R, D105N, S110G
notes: as for B1

Columns and labels:
[1] = target: T1, Human IL-18Rα ectodomain (amino acids …); test: SPR
[2] = target: T2, IL-18 receptor (IL-18Rα / IL-18Rβ …); test: cell-based or functional assay
[3] = target: T1, Human IL-18Rα ectodomain (amino acids …); test: SPR, apparent KD, first value of the cell; Exp 2
Procedure: (§1) Surface Plasmon Resonance (SPR) was used to perform biophysical affinity measurements of second generation DR-IL-18 variants (binding to IL-18R vs IL-18BP). Experiments were conducted using a Biacore T100 instrument and carried out at 25° C. Biotinylated IL-18Rα or IL-18BP were immobilized onto a Biacore biotin capture chip (Series S CAP sensor chip, GE Healthcare) to yield an Rmax of ˜50 RU (IL-18Rα) or ˜10 RU (IL-18BP). Measurements were made with serial dilutions of the IL-18 variants in HEPES buffered Saline-P+ buffer (10 mM HEPES pH 7.4, 150 mM NaCl, 0.005% surfactant P20). The surface was regenerated by three 60-sec injections of regeneration buffer (3/4 (v/v) 8M guanidine hydrochloride with ¼ (v/v) 1M sodium hydroxide). Experiments were performed in multiple channels simultaneously for increased observations. All data were analyzed with the Biacore T100 evaluation software version 2.0 with a 1:1 Langmuir binding model.

[4] = target: T1, Human IL-18Rα ectodomain (amino acids …); test: SPR, apparent KD, second value of the cell; Exp 1
Procedure: as §1

[5] = target: T1, Human IL-18Rα ectodomain (amino acids …); test: SPR (Biacore T100), hIL-18Rα as surface ligand; Exp 1
Procedure: as §1

[6] = target: T1, Human IL-18Rα ectodomain (amino acids …); test: SPR (Biacore T100), hIL-18Rα as surface ligand; Exp 2
Procedure: as §1

[7] = target: T1, Human IL-18Rα ectodomain (amino acids …); test: SPR (Biacore T100), hIL-18Rα as surface ligand, 1:1 Langmuir
Procedure: as §1

[8] = target: T1, Human IL-18Rα ectodomain (amino acids …); test: on-yeast binding isotherm (flow cytometry), drawn summary table, IL18Rα (KD)
Procedure: Individual colonies of IL-18 yeast were grown overnight at 30° C. in SDCAA liquid media and induced in SGCAA liquid media for 1 day at 20° C. IL-18 display levels on yeast were verified by flow cytometry using an anti-cMyc tag antibody (anti-myc-PE; Cell Signaling Technologies). Receptor staining with biotinylated IL-18Rα (with or without IL-18R β) or biotinylated IL-18BP was performed in PBS supplemented with 0.5% BSA and 2 mM EDTA (PBE) on ice. All analysis was performed on a Sony SA3800 flow cytometer.

[9] = target: T3, Human IL-18BP (amino acids 31-194), …; test: SPR; KD(IL-18BP)/KD(IL-18Rα) normalized to WT IL-18; SPR; ratio from the bound KD BP >10,000 nM
Procedure: as §1

[10] = target: T3, Human IL-18BP (amino acids 31-194), …; test: on-yeast binding isotherms; 20 µM used for NBD; printed without '>'; yeast-displayed variant; ratio computed with 20 µM put in for NBD
[11] = target: T3, Human IL-18BP (amino acids 31-194), …; test: on-yeast binding isotherms; KD ratio relative to WT IL-18; yeast-displayed variant; ratio normalized to WT, from the 20 µM placeholder
[12] = target: T1, Human IL-18Rα ectodomain (amino acids …); test: SPR, apparent KD, first value of the cell
Procedure: as §1

[13] = target: T1, Human IL-18Rα ectodomain (amino acids …); test: SPR, apparent KD, second value of the cell
Procedure: as §1

[14] = target: T3, Human IL-18BP (amino acids 31-194), …; test: SPR; KD(IL-18BP)/KD(IL-18Rα) normalized to WT IL-18; SPR; normalized ratio, a bound from KD BP >10,000 nM
Procedure: as §1

Binder	Kd [1]	EC50-#1 (M), HEK-Blue reporter [2]	EC50-#2 (M), HEK-Blue reporter [2]	Kd [3]	Kd [4]	Kd [5]	Kd [6]	koff [7]	kon [7]	Kd [8]	IL-18 BP:Rα Dissociation Constant Ratio [9]	KD ratio IL-18BP/IL-18Rα [10]	Dissociation Constant Ratio normalized to WT IL-18 [11]	Kd [12]	Kd [13]	IL-18 BP:Rα Dissociation Constant Ratio [14]
B1	2.2 nM	1.43e-10 M	5.44e-11 M	1.8 nM	2.2 nM	2.24 nM	1.84 nM	0.00091 s⁻¹	495000 M⁻¹ s⁻¹	17 nM	> 9.32e+06	> 1200	> 17000	–	–	–
B2	2.7 nM	–	–	–	–	2.65 nM	2.07 nM	0.00119 s⁻¹	575000 M⁻¹ s⁻¹	37 nM	–	–	–	2.1 nM	2.7 nM	> 7.59e+06
